Assay results taken from paper PMC4872540, “Structural insight into antibody-mediated antagonism of the Glucagon-like peptide-1 Receptor” (Scientific Reports, 2016).

Molecular target: human GLP-1R (human, UniProt P43220)
Test: cell-based or functional assay

human GLP-1R, sequence (P43220 24-463): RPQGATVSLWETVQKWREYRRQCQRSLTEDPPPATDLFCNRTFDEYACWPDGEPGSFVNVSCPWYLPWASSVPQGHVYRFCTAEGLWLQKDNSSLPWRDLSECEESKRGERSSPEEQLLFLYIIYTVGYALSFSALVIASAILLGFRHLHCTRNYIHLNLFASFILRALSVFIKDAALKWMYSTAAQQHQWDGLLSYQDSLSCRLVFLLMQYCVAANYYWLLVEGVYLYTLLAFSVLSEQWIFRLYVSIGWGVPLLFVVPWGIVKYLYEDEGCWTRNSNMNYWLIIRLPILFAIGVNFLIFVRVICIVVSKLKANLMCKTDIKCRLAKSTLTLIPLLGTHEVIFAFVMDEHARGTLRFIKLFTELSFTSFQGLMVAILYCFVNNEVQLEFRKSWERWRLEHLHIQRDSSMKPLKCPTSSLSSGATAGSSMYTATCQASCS

B1: mAb 3F52 (antibody, V domains shown)
VH: DVQLQESGPGLVKPSQSLSLTCTVTGYSITSTYDWHWIRHFPGNILEWMGYISYSGSTNYNPSLKSRISITHDTSKNRFFLKLNSVTSEDTATYYCARATASFYDGSYYFDYWGQGTTLTVSS
VL: DIQMTQTTSSLSASLGDRVTISCRASQDISNYLNWYQQKPDGTVKLLIYYTSRLHSGVPSRFSGSGSGTDYSLTISSLEQEDVATYFCQQGNTLPFTFGSGTKLEIK
  IC50 of inhibition of GLP-1-mediated cAMP accumulation (Flashplate assay, BHK cells over-expressing human GLP-1R); blocks GLP-1 with GLP-1R: ~10 nM
